Laboratory results as given in PMC4498601, “Two high-mobility group box domains act together to underwind and kink DNA”.

Molecular target: T1, HMGB1 box A (Rattus norvegicus (rat), UniProt P63159 8-81)
T1 sequence: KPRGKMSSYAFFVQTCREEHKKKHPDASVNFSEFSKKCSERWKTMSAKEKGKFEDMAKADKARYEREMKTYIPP
Assay: X-ray crystallography; 2.0 A; 40 mM MgCl2, 50 mM sodium cacodylate pH 6.0, MPD; two box A per kinked duplex, one further duplex almost unbound; EMSA: 0.33x TBE (30 mM Tris-borate, 0.66 mM EDTA), 3% glycerol, 30 min incubation (temperature not stated), 6% native PAGE at 4 C; crystal complex: 1.6 mM protein, 0.8 mM DNA, about 1 h at 4 C
Conditions: protein: recombinant; tags: GST tag removed by thrombin; chain copies: 2; blunt; self-complementary decamer, 2 copies of the strand

B1: d(ATATCGATAT)2 (dsDNA)
DNA 1: ATATCGATAT
DNA 2: ATATCGATAT
B1: binds.
